In article PMC2134809 (The Journal of Cell Biology, 1997):

Biological target: Rabbit skeletal muscle actin (rabbit, UniProt P68135 1-377)
Test: co-sedimentation

B1: Arp2/3 complex (complex)
chain 1: not shown
chain 2: not shown
chain 3: MSANIENFKDSAKLTCITCHAFNRDRTLIAICPNNNEVHIYQKQGAEWVKNAVLVEHDQAVTGIDWGHKENRIVTCSQDRNAYVWSLGADGKWKPTLVLLRITRAATHVKWSPNEEKFAVATGAKCVSVCYFEEANDWWVSKHIKLHKSTVLNVAWHPNNIFLATAASDFKARIFSAFIKGVDKRPENTPFGDKLPFGEMLAEYSCGGWVHGVSWSPSGEWLSFVSHDSAISFVNISTGREAVPQRLSLSGLPYRVLAFLNPTDIIAAGYDCNPALFRLSGQTWAFVKNVDESSAAARAAPGAAQSAMNMWQKKADLGTTSNETQLETKHQNAISGLTALAPNQFSTTAVDGKLIIWTVRA
chain 4: MILLETGSRILEEVIRQRVQSDKREAVDITLADFDGVQYHIATNATQRNLVTVSISWPCISQMKQFGTDAKVQSFYGPLVTSAETGYDYTLQFDLDNLADKDSLPGKIALFKRTVVAAPLEAVFDGKPGLPPVITINYRTNEAVYLKREGNNVAVIFSINFKDKDDIVIGKVFLQELEAARKTINNAPAVTFSQRERPLELKSVQNVYEGEDQGFVTFLLFGPHTHESRRGKTIDTIHLFRNYLHYHIKCSKAFLHTRMRLRVEELLQVLNRAKIKNANKEMKTMSGRTFKRA
chain 5: MCGMGVLPIKTKYKGPAPRYTGPADQPDIIDEAISFFKANVLFRNYEVKGPADRVLIYLTLYISQAINQMVNQSKGGAQKNLFNLAIQNFAVPGDKNFALAGFVSNPANRAEADQIRQYLTQLRQETGDRLIEAVYAFGENEPSKWWMCFSKRKFLNKNL
chain 6: METPEKPERSDAEFQQSLDARQREVNNALNTGNPGRALSAALQDPPLGCKNQQIRAVVNVLTSVKDADMQKNIDALSPTDLDTLMKYIYRGLEDGENSTSLLKWHEAVTKKGGLGCIVRALAERKAL
  Kd: 2300 ± 300 nM
  stoichiometry N: 1 actin monomer per Arp2/3-binding site
